# ± gives the standard error. This sample holds only a part of the variants without activity.
# B1: glmS ribozyme (parent)
# chain: AUAAAAGCGCCAGAACUACAGAAAUGUAGUUGACGAGGAGGAGGUUUAUCGAAUUUUCGGCGGAUGCCUCCAAA
# Variants of: B1
# Test: self-cleavage kobs at 640 uM GlcN6P; higher = faster cleavage; RNA array
# Details: with glucosamine-6-phosphate
# In short: (§1)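 Using a hybridised Cy3 probe at 37 °C, barcoded ribozyme variants transcribed in situ by E. coli RNA polymerase on sequenced MiSeq chips were monitored across tiles imaged over ~14 h. The flow contained glucosamine-6-phosphate from 40 μM to 10 mM in HEPES/KCl/Mg(OAc)2 buffer. Signals were normalised to baseline and to non-cleaving reference variants before per-tile medians were fit to one- or two-exponential decays to yield kobs. Weighted Michaelis–Menten fits across concentrations gave kcat and KM.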
row,Variant,self-cleavage kobs at 640 uM GlcN6P [s⁻¹]
1,U47A G63A,< 1e-05
2,A48U U55G C71A,2.8e-05 ± 1.3e-05
3,U56G U57A,6.17e-05 ± 1e-05
4,A64C C68A C70G,< 1e-05
5,A52G U56G,0.000309 ± 5.9e-05
6,G51U U55C,< 1e-05
7,U55G G63U U65G,< 1e-05
8,C58G G59U C68G,4.54e-05 ± 1.7e-05
9,U57G C58G C67G,0.000157 ± 5.5e-05
10,U47G C70U C71G,0.000118 ± 2.3e-05
11,U55A U65C C68U,0.000206 ± 8.7e-05
12,U57C C61U G63A,< 1e-05
13,C50U U56G C70G,0.000278 ± 8e-05
14,G51U G63A C68G,9.2e-05 ± 3e-05
15,G51C C67G C70U,< 1e-05
16,C50G U65G U69A,0.000101 ± 2.1e-05
17,U55G U56A G60U C71U,< 1e-05
18,C50U C67A,6.32e-05 ± 2.1e-05
19,U47A A48C,0.000145 ± 2.2e-05
20,U55G U65C C70U,0.00017 ± 3.7e-05
21,U47A U56A C70U,0.00117 ± 0.00047
22,C61U G66C,< 1e-05

# Variants of: B1
# Test: self-cleavage kobs at 2500 uM GlcN6P; higher = faster cleavage; RNA array
# Details: with glucosamine-6-phosphate
# In short: as §1
row,Variant,self-cleavage kobs at 2500 uM GlcN6P [s⁻¹]
1,A6G A12C U55C C67U,< 1e-05
2,U56G U57A,0.000102 ± 1.2e-05
3,A6C C8G G66A C70U,< 1e-05
4,A64C C68A C70G,< 1e-05
5,A52G U56G,0.000536 ± 0.00011
6,A6C G40C C61U,< 1e-05
7,A6G A15U G59C,< 1e-05
8,U55G G63U U65G,< 1e-05
9,U57G C58G C67G,6.13e-05 ± 2.6e-05
10,A6G A36C C58A,< 1e-05
11,U55A U65C C68U,0.000114 ± 3.5e-05
12,A6C A42U G59U,< 1e-05
13,U57C C61U G63A,< 1e-05
14,C50U U56G C70G,0.000251 ± 5.8e-05
15,A6C C8G A14C A48C,< 1e-05
16,G51C C67G C70U,< 1e-05
17,A6G A12U C67U,0.000919 ± 0.00023
18,A6C A14U C50G C61G C68G C70U,0.000499 ± 0.00017
19,U47A A48C,0.000222 ± 3.6e-05
20,U55G U65C C70U,0.000458 ± 0.00012
21,A6C C34G C50G,4.66e-05 ± 2.1e-05
22,U47A U56A C70U,0.00157 ± 0.0006
23,C61U G66C,< 1e-05

# Variants of: B1
# Test: self-cleavage kobs at 10000 uM GlcN6P; higher = faster cleavage; RNA array
# Details: with glucosamine-6-phosphate
# In short: as §1
row,Variant,self-cleavage kobs at 10000 uM GlcN6P [s⁻¹]
1,U56G U57A,0.000326 ± 4.4e-05
2,A52G U56G,0.0014 ± 0.00025
3,G51U U55C,< 1e-05
4,U57G C58G C67G,3.89e-05 ± 1.9e-05
5,U57C C61U G63A,< 1e-05
6,U47A A48C,0.000561 ± 0.0001
